{"source": "patent US20220323445A1", "about": "“REDUCING IMMUNOGENICITY TO PEGLOTICASE” (Horizon Therapeutics Ireland DAC, priority 2020, published 2022)", "molecules": {"B1": {"name": "pegloticase (protein)", "chain": "TYKKNDEVEFVRTGYGKDMIKVLHIQRDGKYHSIKEVATTVQLTLSSKKDYLHGDNSDVIPTDTIKNTVNVLAKFKGIKSIETFAVTICEHFLSSFKHVIRAQVYVEEVPWKRFEKNGVKHVHAFIYTPTGTHFCEVEQIRNGPPVIHSGIKDLKVLKTTQSGFEGFIKDQFTTLPEVKDRCFATQVYCKWRYHQGRDVDFEATWDTVRSIVLQKFAGPYDKGEYSPSVQKTLYDIQVLTLGQVPEIEDMEISLPNIHYLNIDMSKMGLINKEEVLLPLDNPYGKITGTVKRKLSSRL", "modifications": "monomethoxy PEG conjugated; Krystexxa Sequence", "notes": "covalent conjugate of uricase produced by a genetically modified strain of Escherichia coli and monomethoxypoly (ethylene glycol)"}}, "test_system": "serum uric acid (sUA)", "test": "Serum uric acid (sUA) levels and sUA responders, open-label study of pegloticase with MTX (NCT03635957)", "type": "in vivo, human", "experimental": "The primary objective is to estimate the response rate during Month 6 (Weeks 20, 22, and 24), as measured by the sustained normalization of serum uric acid (SUA) to <6 mg/dL for at least 80% of the time during Month 6 in subjects receiving KXX with MTX.\nThe primary efficacy outcome endpoint is the sustained normalization of SUA to <6 mg/dL for at least 80% of the time during month 6 (weeks 20, 22, and 24) in subjects receiving KXX with MTX. This is slightly below the urate solubility threshold and this threshold has been the accepted standard for nearly all modern gout trials. Participants who achieve this endpoint were classified as “responders.” Serum uric acid (SUA) responders may also be defined as participants achieving and maintaining SUA <6 mg/dL for at least 80% of the time during Month 6 (Weeks 20, 22, and 24).\nBlood samples may be collected prior to each pegloticase infusion for measurement of SUA levels using the Beckman Coulter AU System Uric Acid procedure. Participants were declared “non-responders” if there were SUA measures >6 mg/dL at 2 consecutive study visits beginning with the week 2 visit. […] If the SUA goal is not maintained before or at the 12-week mark, it was assumed that the participant had developed clinically relevant anti-pegloticase antibody and they received no further infusions. This assumption and subsequent discontinuation of pegloticase was consistent with the protocol of large phase III randomized controlled trials and the product label. A formal stopping rule was 2 occasions of SUA levels of greater than 6 mg/dL.\nClinical Chemistry—Blood samples were collected prior to each pegloticase infusion for measurement of SUA levels (primary efficacy parameter) using the Beckman Coulter AU System Uric Acid procedure. In this procedure uric acid is converted to hydrogen peroxide. Hydrogen peroxide reacts with reagent to produce a chromophore which is read bichromatically at 660/800 nm. The amount of dye formed is proportional to the uric acid concentration in the sample.\nSerum samples for measurement of SUA levels were collected at the Screening Visit, the Week −4 Visit (prior to the first dose of MTX), and the Week −2 Visit during the MTX Run-in Period; within 48 hours prior to each pegloticase infusion and after the end of each pegloticase infusion prior to discharge from the site during the Pegloticase+IMM Period; at the non-infusion Week 52/End of Study/Early Termination Visits and at the Post Treatment 3 and 6 Month Follow-up Visits. Additional serum samples for SUA levels were collected at optional non-infusion (Frequent Sampling) Visits at Weeks 1 and 7. […] Subjects with SUA level >6 mg/dL at 2 consecutive visits beginning at Week 2 visit discontinued treatment, completed the End of Pegloticase Infusion Visit procedures within 2 weeks and continued the subject visits according to the protocol (without treatment).\nEfficacy analyses were performed using the modified intention-to-treat (mITT) population, defined as all enrolled subjects who received ≥1 dose of pegloticase. The proportion of Month 6 responders was summarized, along with a 95% confidence interval for the proportion. The proportion of Month 3 and overall (Months 3 and 6 combined) responders was analyzed similarly.\nA subject was declared a non-responder if the subject had SUA level >6 mg/dL at 2 consecutive study visits beginning with the Week 2 Visit. In addition, a subject who withdraws from study treatment for any reason after the first dose of pegloticase in the KXX+MTX Period and prior to Month 6 (for the primary endpoint) or Month 3 (for the secondary endpoint) was considered a non-responder if SUA values were not collected at the planned time points.\nPatients were administered oral MTX (15 mg/week) and folate (1 mg/day) 4 weeks prior to the first pegloticase infusion (Day 1) and throughout the pegloticase treatment period. […]", "key": {"[1]": {"conditions": "Week 24 - Pre-Infusion, mITT, n=11"}, "[2]": {"conditions": "Week 26 - Pre-Infusion, Month 6 sUA Responders"}, "[3]": {"conditions": "Week 26 - Pre-Infusion, mITT, n=8"}, "[4]": {"conditions": "Week 28 - Pre-Infusion, Month 6 sUA Responders"}, "[5]": {"conditions": "Week 28 - Pre-Infusion, mITT, n=8"}, "[6]": {"conditions": "Week 30 - Pre-Infusion, Month 6 sUA Responders"}, "[7]": {"conditions": "Week 30 - Pre-Infusion, mITT, n=8"}, "[8]": {"conditions": "Week 32 - Post-Infusion, Month 6 sUA Responders"}, "[9]": {"conditions": "Week 32 - Post-Infusion, mITT, n=8"}, "[10]": {"conditions": "Week 32 - Pre-Infusion, Month 6 sUA Responders"}, "[11]": {"conditions": "Week 32 - Pre-Infusion, mITT, n=10"}, "[12]": {"conditions": "Week 34 - Post-Infusion, Month 6 sUA Responders"}, "[13]": {"conditions": "Week 34 - Post-Infusion, mITT, n=8"}}}
{"molecule": "B1", "values": [{"measurement": "sUA < 6 mg/dL, n (%)", "setting": "[1]", "value": "11 (100%)"}, {"measurement": "sUA Change from Baseline, Mean (SD)", "setting": "[1]", "value": "−8.97 (2.810) mg/dL"}, {"measurement": "sUA Change from Baseline, Median", "setting": "[1]", "value": -8.80, "unit": "mg/dL"}, {"measurement": "sUA Observed, Mean (SD)", "setting": "[1]", "value": "0.30 (0.000) mg/dL"}, {"measurement": "sUA Observed, Median", "setting": "[1]", "value": 0.30, "unit": "mg/dL"}, {"measurement": "sUA < 6 mg/dL, %", "setting": "[2]", "value": "(100%)"}, {"measurement": "sUA Change from Baseline, Mean", "setting": "[2]", "value": -9.11, "unit": "mg/dL"}, {"measurement": "sUA Change from Baseline, Median", "setting": "[2]", "value": -8.95, "unit": "mg/dL"}, {"measurement": "sUA Observed, Mean", "setting": "[2]", "value": 0.30, "unit": "mg/dL"}, {"measurement": "sUA Observed, Median", "setting": "[2]", "value": 0.30, "unit": "mg/dL"}, {"measurement": "sUA < 6 mg/dL, n (%)", "setting": "[3]", "value": "8 (100%)"}, {"measurement": "sUA Change from Baseline, Mean (SD)", "setting": "[3]", "value": "−9.11 (3.293) mg/dL"}, {"measurement": "sUA Change from Baseline, Median", "setting": "[3]", "value": -8.95, "unit": "mg/dL"}, {"measurement": "sUA Observed, Mean (SD)", "setting": "[3]", "value": "0.30 (0.000) mg/dL"}, {"measurement": "sUA Observed, Median", "setting": "[3]", "value": 0.30, "unit": "mg/dL"}, {"measurement": "sUA < 6 mg/dL, %", "setting": "[4]", "value": "(100%)"}, {"measurement": "sUA Change from Baseline, Mean", "setting": "[4]", "value": -9.11, "unit": "mg/dL"}, {"measurement": "sUA Change from Baseline, Median", "setting": "[4]", "value": -8.95, "unit": "mg/dL"}, {"measurement": "sUA Observed, Mean", "setting": "[4]", "value": 0.30, "unit": "mg/dL"}, {"measurement": "sUA Observed, Median", "setting": "[4]", "value": 0.30, "unit": "mg/dL"}, {"measurement": "sUA < 6 mg/dL, n (%)", "setting": "[5]", "value": "8 (100%)"}, {"measurement": "sUA Change from Baseline, Mean (SD)", "setting": "[5]", "value": "−9.11 (3.293) mg/dL"}, {"measurement": "sUA Change from Baseline, Median", "setting": "[5]", "value": -8.95, "unit": "mg/dL"}, {"measurement": "sUA Observed, Mean (SD)", "setting": "[5]", "value": "0.30 (0.000) mg/dL"}, {"measurement": "sUA Observed, Median", "setting": "[5]", "value": 0.30, "unit": "mg/dL"}, {"measurement": "sUA < 6 mg/dL, %", "setting": "[6]", "value": "(100%)"}, {"measurement": "sUA Change from Baseline, Mean", "setting": "[6]", "value": -9.11, "unit": "mg/dL"}, {"measurement": "sUA Change from Baseline, Median", "setting": "[6]", "value": -8.95, "unit": "mg/dL"}, {"measurement": "sUA Observed, Mean", "setting": "[6]", "value": 0.30, "unit": "mg/dL"}, {"measurement": "sUA Observed, Median", "setting": "[6]", "value": 0.30, "unit": "mg/dL"}, {"measurement": "sUA < 6 mg/dL, n (%)", "setting": "[7]", "value": "8 (100%)"}, {"measurement": "sUA Change from Baseline, Mean (SD)", "setting": "[7]", "value": "−9.11 (3.293) mg/dL"}, {"measurement": "sUA Change from Baseline, Median", "setting": "[7]", "value": -8.95, "unit": "mg/dL"}, {"measurement": "sUA Observed, Mean (SD)", "setting": "[7]", "value": "0.30 (0.000) mg/dL"}, {"measurement": "sUA Observed, Median", "setting": "[7]", "value": 0.30, "unit": "mg/dL"}, {"measurement": "sUA < 6 mg/dL, %", "setting": "[8]", "value": "(100%)"}, {"measurement": "sUA Change from Baseline, Mean", "setting": "[8]", "value": -9.11, "unit": "mg/dL"}, {"measurement": "sUA Change from Baseline, Median", "setting": "[8]", "value": -8.95, "unit": "mg/dL"}, {"measurement": "sUA Observed, Mean", "setting": "[8]", "value": 0.30, "unit": "mg/dL"}, {"measurement": "sUA Observed, Median", "setting": "[8]", "value": 0.30, "unit": "mg/dL"}, {"measurement": "sUA < 6 mg/dL, n (%)", "setting": "[9]", "value": "8 (100%)"}, {"measurement": "sUA Change from Baseline, Mean (SD)", "setting": "[9]", "value": "−9.11 (3.293) mg/dL"}, {"measurement": "sUA Change from Baseline, Median", "setting": "[9]", "value": -8.95, "unit": "mg/dL"}, {"measurement": "sUA Observed, Mean (SD)", "setting": "[9]", "value": "0.30 (0.000) mg/dL"}, {"measurement": "sUA Observed, Median", "setting": "[9]", "value": 0.30, "unit": "mg/dL"}, {"measurement": "sUA < 6 mg/dL, %", "setting": "[10]", "value": "(100%)"}, {"measurement": "sUA Change from Baseline, Mean", "setting": "[10]", "value": -8.99, "unit": "mg/dL"}, {"measurement": "sUA Change from Baseline, Median", "setting": "[10]", "value": -8.95, "unit": "mg/dL"}, {"measurement": "sUA Observed, Mean", "setting": "[10]", "value": 0.30, "unit": "mg/dL"}, {"measurement": "sUA Observed, Median", "setting": "[10]", "value": 0.30, "unit": "mg/dL"}, {"measurement": "sUA < 6 mg/dL, n (%)", "setting": "[11]", "value": "10 (100%)"}, {"measurement": "sUA Change from Baseline, Mean (SD)", "setting": "[11]", "value": "−8.99 (2.961) mg/dL"}, {"measurement": "sUA Change from Baseline, Median", "setting": "[11]", "value": -8.95, "unit": "mg/dL"}, {"measurement": "sUA Observed, Mean (SD)", "setting": "[11]", "value": "0.30 (0.000) mg/dL"}, {"measurement": "sUA Observed, Median", "setting": "[11]", "value": 0.30, "unit": "mg/dL"}, {"measurement": "sUA < 6 mg/dL, %", "setting": "[12]", "value": "(100%)"}, {"measurement": "sUA Change from Baseline, Mean", "setting": "[12]", "value": -9.11, "unit": "mg/dL"}, {"measurement": "sUA Change from Baseline, Median", "setting": "[12]", "value": -8.95, "unit": "mg/dL"}, {"measurement": "sUA Observed, Mean", "setting": "[12]", "value": 0.30, "unit": "mg/dL"}, {"measurement": "sUA Observed, Median", "setting": "[12]", "value": 0.30, "unit": "mg/dL"}, {"measurement": "sUA < 6 mg/dL, n (%)", "setting": "[13]", "value": "8 (100%)"}, {"measurement": "sUA Change from Baseline, Mean (SD)", "setting": "[13]", "value": "−9.11 (3.293) mg/dL"}, {"measurement": "sUA Change from Baseline, Median", "setting": "[13]", "value": -8.95, "unit": "mg/dL"}, {"measurement": "sUA Observed, Mean (SD)", "setting": "[13]", "value": "0.30 (0.000) mg/dL"}, {"measurement": "sUA Observed, Median", "setting": "[13]", "value": 0.30, "unit": "mg/dL"}]}
